Experimental data reported in paper PMC5150538, “Structural basis of myelin-associated glycoprotein adhesion and signalling” (Nature Communications, 2016).

B1: MAG1–5 wt glycosylated (full extracellular segment of mouse myelin-associated glycoprotein) (domain or fragment, UniProt P20917 20-508, looked up)
chain: GHWGAWMPSTISAFEGTCVSIPCRFDFPDELRPAVVHGVWYFNSPYPKNYPPVVFKSRTQVVHESFQGRSRLLGDLGLRNCTLLLSTLSPELGGKYYFRGDLGGYNQYTFSEHSVLDIVNTPNIVVPPEVVAGTEVEVSCMVPDNCPELRPELSWLGHEGLGEPTVLGRLREDEGTWVQVSLLHFVPTREANGHRLGCQAAFPNTTLQFEGYASLDVKYPPVIVEMNSSVEAIEGSHVSLLCGADSNPPPLLTWMRDGMVLREAVAKSLYLDLEEVTPGEDGVYACLAENAYGQDNRTVELSVMYAPWKPTVNGTVVAVEGETVSILCSTQSNPDPILTIFKEKQILATVIYESQLQLELPAVTPEDDGEYWCVAENQYGQRATAFNLSVEFAPIILLESHCAAARDTVQCLCVVKSNPEPSVAFELPSRNVTVNETEREFVYSERSGLLLTSILTIRGQAQAPPRVICTSRNLYGTQSLELPFQGAHR
modifications: N-linked glycans (made in GnTI- cells); C-mannosylation on W22
notes: Myelin-associated glycoprotein (MAG), mouse, Ig domains 1-5, residues 20-508 (UniProt numbering, starts after the signal peptide); template mouse S-MAG cDNA; Vector pUPE107.03 with a cystatin secretion signal peptide and a C-terminal His6-tag; also called wt MAG1–5; MAG full ectodomain; source: HEK293 GnTI- EBNA1 cells in suspension, transient, secreted; purified (Ni-NTA, SEC)
B2: MAG1–5 N406Q glycosylated (domain or fragment, mouse, UniProt P20917 20-508, looked up)
chain: GHWGAWMPSTISAFEGTCVSIPCRFDFPDELRPAVVHGVWYFNSPYPKNYPPVVFKSRTQVVHESFQGRSRLLGDLGLRNCTLLLSTLSPELGGKYYFRGDLGGYNQYTFSEHSVLDIVNTPNIVVPPEVVAGTEVEVSCMVPDNCPELRPELSWLGHEGLGEPTVLGRLREDEGTWVQVSLLHFVPTREANGHRLGCQAAFPNTTLQFEGYASLDVKYPPVIVEMNSSVEAIEGSHVSLLCGADSNPPPLLTWMRDGMVLREAVAKSLYLDLEEVTPGEDGVYACLAENAYGQDNRTVELSVMYAPWKPTVNGTVVAVEGETVSILCSTQSNPDPILTIFKEKQILATVIYESQLQLELPAVTPEDDGEYWCVAENQYGQRATAFQLSVEFAPIILLESHCAAARDTVQCLCVVKSNPEPSVAFELPSRNVTVNETEREFVYSERSGLLLTSILTIRGQAQAPPRVICTSRNLYGTQSLELPFQGAHR
modifications: N-linked glycans (made in GnTI- cells), lacks the N-linked glycan on residue 406
notes: Myelin-associated glycoprotein (MAG), mouse, Ig domains 1-5, residues 20-508 (UniProt numbering), with N406Q; also called N406Q mutant; source: HEK293 GnTI- EBNA1 cells in suspension, transient, secreted; purified (Ni-NTA, SEC)
B3: MAG1–5 N406Q deglycosylated (domain or fragment, mouse, UniProt P20917 20-508, looked up)
chain: GHWGAWMPSTISAFEGTCVSIPCRFDFPDELRPAVVHGVWYFNSPYPKNYPPVVFKSRTQVVHESFQGRSRLLGDLGLRNCTLLLSTLSPELGGKYYFRGDLGGYNQYTFSEHSVLDIVNTPNIVVPPEVVAGTEVEVSCMVPDNCPELRPELSWLGHEGLGEPTVLGRLREDEGTWVQVSLLHFVPTREANGHRLGCQAAFPNTTLQFEGYASLDVKYPPVIVEMNSSVEAIEGSHVSLLCGADSNPPPLLTWMRDGMVLREAVAKSLYLDLEEVTPGEDGVYACLAENAYGQDNRTVELSVMYAPWKPTVNGTVVAVEGETVSILCSTQSNPDPILTIFKEKQILATVIYESQLQLELPAVTPEDDGEYWCVAENQYGQRATAFQLSVEFAPIILLESHCAAARDTVQCLCVVKSNPEPSVAFELPSRNVTVNETEREFVYSERSGLLLTSILTIRGQAQAPPRVICTSRNLYGTQSLELPFQGAHR
modifications: N-linked glycans trimmed down to single N-Acetylglucosamines by Endo-Hf
notes: Myelin-associated glycoprotein (MAG), mouse, Ig domains 1-5, residues 20-508 (UniProt numbering), with N406Q; also called deglycosylated MAG1–5 N406Q; source: HEK293 GnTI- EBNA1 cells in suspension, transient, secreted; purified (Ni-NTA, SEC); deglycosylated with Endo-Hf
B4: MAG1–5 wt deglycosylated (domain or fragment, mouse, UniProt P20917 20-508, looked up)
chain: GHWGAWMPSTISAFEGTCVSIPCRFDFPDELRPAVVHGVWYFNSPYPKNYPPVVFKSRTQVVHESFQGRSRLLGDLGLRNCTLLLSTLSPELGGKYYFRGDLGGYNQYTFSEHSVLDIVNTPNIVVPPEVVAGTEVEVSCMVPDNCPELRPELSWLGHEGLGEPTVLGRLREDEGTWVQVSLLHFVPTREANGHRLGCQAAFPNTTLQFEGYASLDVKYPPVIVEMNSSVEAIEGSHVSLLCGADSNPPPLLTWMRDGMVLREAVAKSLYLDLEEVTPGEDGVYACLAENAYGQDNRTVELSVMYAPWKPTVNGTVVAVEGETVSILCSTQSNPDPILTIFKEKQILATVIYESQLQLELPAVTPEDDGEYWCVAENQYGQRATAFNLSVEFAPIILLESHCAAARDTVQCLCVVKSNPEPSVAFELPSRNVTVNETEREFVYSERSGLLLTSILTIRGQAQAPPRVICTSRNLYGTQSLELPFQGAHR
modifications: N-linked glycans trimmed down to single N-Acetylglucosamines by Endo-Hf; C-mannosylation on W22
notes: Myelin-associated glycoprotein (MAG), mouse, Ig domains 1-5, residues 20-508 (UniProt numbering, starts after the signal peptide); template mouse S-MAG cDNA; Same construct as m1 after Endo-Hf treatment; also called deglycosylated MAG1–5; deglycosylated wt MAG1–5; source: HEK293 GnTI- EBNA1 cells in suspension, transient, secreted; purified (Ni-NTA, SEC); deglycosylated with Endo-Hf overnight at …
B5: Myelin-associated glycoprotein (MAG, Siglec4a): N406Q (protein)
parent chain: MIFLATLPLFWIMISASRGGHWGAWMPSTISAFEGTCVSIPCRFDFPDELRPAVVHGVWYFNSPYPKNYPPVVFKSRTQVVHESFQGRSRLLGDLGLRNCTLLLSTLSPELGGKYYFRGDLGGYNQYTFSEHSVLDIVNTPNIVVPPEVVAGTEVEVSCMVPDNCPELRPELSWLGHEGLGEPTVLGRLREDEGTWVQVSLLHFVPTREANGHRLGCQAAFPNTTLQFEGYASLDVKYPPVIVEMNSSVEAIEGSHVSLLCGADSNPPPLLTWMRDGMVLREAVAKSLYLDLEEVTPGEDGVYACLAENAYGQDNRTVELSVMYAPWKPTVNGTVVAVEGETVSILCSTQSNPDPILTIFKEKQILATVIYESQLQLELPAVTPEDDGEYWCVAENQYGQRATAFNLSVEFAPIILLESHCAAARDTVQCLCVVKSNPEPSVAFELPSRNVTVNETEREFVYSERSGLLLTSILTIRGQAQAPPRVICTSRNLYGTQSLELPFQGAHRLMWAKIGPVGAVVAFAILIAIVCYITQTRRKKNVTESSSFSGGDNPHVLYSPEFRISGAPDKYESEKQRLGSERRLLGLRGESPELDLSYSHSDLGKRPTKDSYTLTEELAEYAEIRVK
B6: Myelin-associated glycoprotein (MAG, Siglec4a): Endo-Hf (protein)
parent chain: MIFLATLPLFWIMISASRGGHWGAWMPSTISAFEGTCVSIPCRFDFPDELRPAVVHGVWYFNSPYPKNYPPVVFKSRTQVVHESFQGRSRLLGDLGLRNCTLLLSTLSPELGGKYYFRGDLGGYNQYTFSEHSVLDIVNTPNIVVPPEVVAGTEVEVSCMVPDNCPELRPELSWLGHEGLGEPTVLGRLREDEGTWVQVSLLHFVPTREANGHRLGCQAAFPNTTLQFEGYASLDVKYPPVIVEMNSSVEAIEGSHVSLLCGADSNPPPLLTWMRDGMVLREAVAKSLYLDLEEVTPGEDGVYACLAENAYGQDNRTVELSVMYAPWKPTVNGTVVAVEGETVSILCSTQSNPDPILTIFKEKQILATVIYESQLQLELPAVTPEDDGEYWCVAENQYGQRATAFNLSVEFAPIILLESHCAAARDTVQCLCVVKSNPEPSVAFELPSRNVTVNETEREFVYSERSGLLLTSILTIRGQAQAPPRVICTSRNLYGTQSLELPFQGAHRLMWAKIGPVGAVVAFAILIAIVCYITQTRRKKNVTESSSFSGGDNPHVLYSPEFRISGAPDKYESEKQRLGSERRLLGLRGESPELDLSYSHSDLGKRPTKDSYTLTEELAEYAEIRVK

Assays:
[1] = molecular target: the molecule itself; assay: AUC; sedimentation equilibrium, SEC buffer (150 mM NaCl, 20 mM HEPES pH 7.5), 20 °C, 7,500, 14,000 and 20,000 r.p.m., global analysis of several concentrations, speeds and wavelengths; monomer to dimer
[2] = molecular target: the molecule itself; assay: SAXS; ESRF BM29, SEC buffer (150 mM NaCl, 20 mM HEPES pH 7.5), 20 °C (277 K for deglycosylated MAG1–5 N406Q), single concentration of 33-52 μM for each sample; monomer to dimer
[3] = molecular target: the molecule itself; assay: SEC; Superdex200 Hiload 16/60, 150 mM NaCl, 20 mM HEPES pH 7.5
[4] = SAXS; settings: glycan lost; control: glycosylated wt MAG1–5
[5] = size exclusion chromatography; settings: glycan lost; control: wt and other MAG constructs
[6] = sedimentation equilibrium AUC, monomer-dimer fit; settings: glycan lost; control: glycosylated wt MAG1–5

Protein	Kd [1] [µM]	stoichiometry N [1]	oligomerisation, other: Rg [4]	other results
B1	382	2		fraction of dimer (OLIGOMER fit, monomer:dimer ratio at 52 μM) [2]: 0.28 fraction
B2				binding result [3]: binds
B3				binding result [2]: binds
B4	167	2		
B5			increases, 7.3 vs 6.8	oligomerisation [5]: increases
B6			increases, 7.3 vs 6.8	oligomerisation, KD [6]: increases, 167 vs 382
